Results from the RNAGym collection of RNA variant scans (doi:10.7554/elife.80360).

B1: HDV Ribozyme (parent)
chain: GGCCGGCAUGGUCCCAGCCUCCUCGCUGGCGCCGGCUGGGCAACAUUCCGAGGGGACCGUCCCCUCGGUAAUGGCGAAUGGGACCCA

Variants of: B1
Assay: self-cleavage, relative activity (ratio to wild type); higher = more cleavage; co-transcriptional

Variant	self-cleavage
GGCCGGCAUGGUCUCAGCCUCCUCGCUGGCGCCGGCUGGGCAACAUUCCGAGGGGACCGUCCCAUCGGUAAUGGCGAAUGGGACCCA	0.939
GGCCGGCAUGGUCCCAGCCUCCUCGCGGGCGCCGGCUGGGCAACAUUCCGAGGGGACCGUCCCCCCGGUAAUGGCGAAUGGGACCCA	0.965
AGCCGUCAUGGUCCCAGCCUCCUCGCUGGCGCCGGCUGGGCAACAUUCCGAGGGGACCGUCCCCUCGGUAAUGGCGAAUGGGACCCA	0
GGCCGGCAUGGUCCCAGCCUCCUCGCUGGCGCCGGCUGGGCAACAUUCCGAGGGGACCGUCCCCUCGGUAAUGGCGAAUGGCACUCA	0.18
GGCCGGCAUGGUCCCUGGCUCCUCGCUGGCGCCGGCUGGGCAACAUUCCGAGGGGACCGUCCCCUCGGUAAUGGCGAAUGGGACCCA	0.227
GGCCGGCAUGGUCCCAGCCUCCUCGCUGGCGCCGGCUGGGCAACAUUCCGAGGCGACCGUCCCCUCGGUAAUGGCGAAUGGGACACA	0.831
GGCCGGCAUGGUCCCAGCCUCCUCGCUGGCGCCGGAUGGGCAACAUUCCGAGGGGACCGUCCCCUCGGUAUUGGCGAAUGGGACCCA	0.309
GGCCGGCAUGGUCCCAGCCUCCUCGCUGGCGCCGGCUGGGCAACAUUCCGAGGGGACAGUCCCCUCAGUAAUGGCGAAUGGGACCCA	0.745
GGCCGGCAUGGUCCCAGCCUCCUCGCUGGCGCCGGCUGGGCAACAUUCCGAGCGGACCGUCCCCUCGGUAAUCGCGAAUGGGACCCA	0.36
GGCCGGCAUGGUCCCAGCCUCCUCGCUGGCGCCGGCUGGGCAACAUUCCGAGGGGACCGUUCCCUCGGAAAUGGCGAAUGGGACCCA	0.914
GGCCGGCAUGGUCCCAGCCUCCUGGCUUGCGCCGGCUGGGCAACAUUCCGAGGGGACCGUCCCCUCGGUAAUGGCGAAUGGGACCCA	0.0594
GGCCGGCAUGGUCCCAGCCUCCUCGCUGGCGCCGGCUGGGCAACAUUCCGAGGGUACCGUCCCCUCGGUAAUGGGGAAUGGGACCCA	0.0707
GGCCGGCAUGGUCCCAGCCUCCUCGGUGGCGCCGGCUGGGCAACAUUCCGAGGGGACGGUCCCCUCGGUAAUGGCGAAUGGGACCCA	0.906
GGCCGGCAUGGGCCCAGCCUCCUCGCUGCCGCCGGCUGGGCAACAUUCCGAGGGGACCGUCCCCUCGGUAAUGGCGAAUGGGACCCA	0.175
GGCAGGCAUGGUCCCAGCCUCCUCGCUGGCGCCGGCUGGACAACAUUCCGAGGGGACCGUCCCCUCGGUAAUGGCGAAUGGGACCCA	0.214
GGCCGGCAUGGUCCCAGCCUCCUCGCUGUCGCCGGCUGGGCAACAUUCCGAGGGGACCGUCCCUUCGGUAAUGGCGAAUGGGACCCA	0.211
GGCCGGCAUGGUCCAAGCCUCCUCGCUGGCGCCGGCUGGGCAACAUUCCGAGGGGACCGUCCCCUCGGUAAUGGCUAAUGGGACCCA	0.919
GGCUGGCAUGGUCCCAGCCUCCUCGCUGGCGCCGGCUGGGCAACAUUCCGAGGGGACCGUCCCCUCGGUAAAGGCGAAUGGGACCCA	0.415
GGCCGGCAUGGUCCGAGCCUCCUCUCUGGCGCCGGCUGGGCAACAUUCCGAGGGGACCGUCCCCUCGGUAAUGGCGAAUGGGACCCA	0.0354
GGCCGGCAUGGUCCCAGCCUCCUCGCUGGCGCCGGCUGGGCGACUUUCCGAGGGGACCGUCCCCUCGGUAAUGGCGAAUGGGACCCA	0.598
GGCCGGCAUGGUCCCAGCCUCCUCGCUGGCGCCGGCUGGGCAACAUUCCGAGGGGACCGUGCCCUCGAUAAUGGCGAAUGGGACCCA	1.02
GGCCGGCAUGGUCCCAGCCUCCUCGCUGACGCCGGCUGGGCAGCAUUCCGAGGGGACCGUCCCCUCGGUAAUGGCGAAUGGGACCCA	0.0386

Variant	self-cleavage
GGCCGGCAUGGUCCCAGCCUCCUCGCUGGCGCCGGGUGGGCAACAUUCCGAGGGGACCGUCCUCUCGGUAAUGGCGAAUGGGACCCA	0.213
GGCCGGCAUGGUCCCAGCCUCCUCGCUGGCGCCGGCUGGGAAACAUUCCGAGGGGACCGUCCCCUCGGUAUUGGCGAAUGGGACCCA	0.665
GGCCGGCAUGGUCCCAGCCUCCUCGCUGGCGCGGGCUGGGCAACAUUCCGAGGGGACCGUCGCCUCGGUAAUGGCGAAUGGGACCCA	0.196
GGCCGGCAUUGUCCCAGCCUCCUCGCUGGCGCCGGCUGGGCAACAUUCCGAGGGGACCGUCCCCUCGGUAAUGGCGGAUGGGACCCA	0.424
GGCCGGCAUGGUCCCAGCCUCCACGCUGGCGCCGGCUGGGCAACAUUCCGAGGGGACCGUCCCCUCGGUAAUGGCGAAUGGGUCCCA	0.449
GGCCGGCAUGGUCCCAGCCUCCUCGCUGACGCCGGCUGGGCAACAUUCCGAGGGGACCGUCCCCUCGGUAAUGGCGAAUAGGACCCA	0.163
GGCCGGCAUGGUACCAGCCUCCUCGCUGGCGCCGGCUGGGCAACAUUCCGAGGGGACCGUCCCCUCGGUAAUCGCGAAUGGGACCCA	0.0767
GGCCGGCAUGGUCCCAGCCUCCUCGCUGGCUCCGGCUGGGCAACAUUCCGAGGGGACCGUCCCCUCGGUAAUGGCGAAUGGGACCGA	0.451
GGCCGGCAUGGUCCCAGCCUCCUCGCUGGUGCCGGCUGGGCAACAUUCCGAGGGGAGCGUCCCCUCGGUAAUGGCGAAUGGGACCCA	0.683
GGCCGGCAUGGUCCCAGCCUCCUCGCUGGCGCCCGCUGGGCAACAUUCCGGGGGGACCGUCCCCUCGGUAAUGGCGAAUGGGACCCA	0.346
GGCCGGCAUGGUCCCAGCCUCCUCGCUGGCGCCGGCUGGACAACAUUCCGAGGGGACCGUCCGCUCGGUAAUGGCGAAUGGGACCCA	0.46
GGCCGGCAUGGUCCCUGCCUCCUCGCUGGCGCCGGCUGGGCAACAUUCCGAGGGGACCGUCCCCUCGGUAAUGGAGAAUGGGACCCA	0.111
GGCCGGCAUGGUCCCAGCCUCCUCCCUGGCCCCGGCUGGGCAACAUUCCGAGGGGACCGUCCCCUCGGUAAUGGCGAAUGGGACCCA	0.0978
GGCCGGCAUGGUCCCAGCCUCCUCGCUGGUGCCGGCGGGGCAACAUUCCGAGGGGACCGUCCCCUCGGUAAUGGCGAAUGGGACCCA	0
GGCCGGCAUGGUCCCAGCCUCCUCGCUGGCGCCGGCUGGGCAACCUUCCGAGGGGACCGUCCCCUCGGUAUUGGCGAAUGGGACCCA	1.09
GGCCGGCAUGGCCCCAGCCUCCUCGCUGGCGCCGGCUGGGCAAGAUUCCGAGGGGACCGUCCCCUCGGUAAUGGCGAAUGGGACCCA	0
GGCCGGCAUGGUCCCAGCCUCCUCGCUGGCGCCGGCUGGGCAACAUUCCGAGGGCACCGUCCCCUCGGUAAUGACGAAUGGGACCCA	0.538
GGGCGGCAUGGUCCCAGCCUCCUCGCUGGCGCCGGCUGGGCAACAUUCCGAGGGGACGGUCCCCUCGGUAAUGGCGAAUGGGACCCA	0.796
GGCCGGCAUGGUCCCAGCCUCCUCGCGGGCGCCGGCUGGGCAACAUUCCGAGGGGAACGUCCCCUCGGUAAUGGCGAAUGGGACCCA	1.22
GGCCGGCAUGGUCCCAGCCUCCUCGCUGGCGCCGGCUGGGCAACAUUCCGAGGGGAUAGUCCCCUCGGUAAUGGCGAAUGGGACCCA	1.13
GGCCGGCAUGGUCCCAGCCUCCUCGUUGGCGCCGGCUGGGUAACAUUCCGAGGGGACCGUCCCCUCGGUAAUGGCGAAUGGGACCCA	1.06
GGCCGGCAUGGUCCCAGCCUCCUCGCUGGCGCCGGCUAGGCAACAUUCCGAGGGGACCGUCCCCUCGGUAAUGACGAAUGGGACCCA	0.0755

Variant	self-cleavage
GGCCGGCAUUGUCCCAGCCUUCUCGCUGGCGCCGGCUGGGCAACAUUCCGAGGGGACCGUCCCCUCGGUAAUGGCGAAUGGGACCCA	0.0532
GGCCGGCAUGGUCCCAGCCUCCUAGCUGGCGCCGGCUGGGCAACAUUCCGAGGGGACCGUCCCCUCGGUAAUGGCGAGUGGGACCCA	0.492
GGCCGGCAUGGUCCCAGCCUCCUCGCUGGCGCCGGCUGGGCAACAUUCCGAGGGGACCGUCCCCUCGGUAAUGGCGAAUGGGGCCCC	0.906
GGCCGGCAUGGUCCCAGCCUCCUCGCUGGCGCCGGCUGGGCAACAUUCCGAGGGGACCGUCCCCUAGGCAAUGGCGAAUGGGACCCA	1.1
GGCCUGCAUGGUCCCAGCCUCCUCGCUGGCGCCGGCUGGGCAACAUUCCGAGGGAACCGUCCCCUCGGUAAUGGCGAAUGGGACCCA	0.467
GGCCGGCAUGGUCCCAGCCUCCUCGCUGGCGCCGGCUGGGCAACAUUCCGAGGGAACCGUCCCCUCGGUAAUGGCGAAUGGGACCCU	1
GGCCGGUAUGGUCCCAGCCUCCUCGCUGGCGCCGGCUGGGCAACAUUCCGAGGGGACCGUCCCCUCGGUAAUGGCGAAUGGAACCCA	0.251
GGCCGGCAUGGUCCCAGCCUCCUGGCUGGCGCCGGCUGGGCAACAUUACGAGGGGACCGUCCCCUCGGUAAUGGCGAAUGGGACCCA	0.0519
GGCGGGCAUGGUCCCAGCCUCCUCGCUGGCGCCGGCUGGGCAACAUUCCGAGGGGACCGUCCCCUCGGUAAUGGCGAAUGGGUCCCA	0.136
GGCCGGCAUGGUGCCAGCCUCCUCCCUGGCGCCGGCUGGGCAACAUUCCGAGGGGACCGUCCCCUCGGUAAUGGCGAAUGGGACCCA	0.0875
GGCCGGCAUGGUCCCAGCCUCCUCGCUGGCGGCGGCUGGGCAACAUUCCGAGGGGACCGUCCCCUCGGUACUGGCGAAUGGGACCCA	0
GGCCGGCAUGGUCCGAGCCUCCUCGCUGGCUCCGGCUGGGCAACAUUCCGAGGGGACCGUCCCCUCGGUAAUGGCGAAUGGGACCCA	0.135
GUCCGGCAUGGUCCCAGCCUCCUCGCUGGCGCCGGCAGGGCAACAUUCCGAGGGGACCGUCCCCUCGGUAAUGGCGAAUGGGACCCA	0.0378
GGCCGGCAUGGUUCCAGCCUCCUCGCUGGCGCCGGCUGGGCAACAUUCCGAGGGGACCGUCCCCUCGGUAAUGGCGAAUCGGACCCA	0.0332
GGCCGGCAUGGUCCCAGCCUCCUCGCUGGCGCCGGCUGGGCAACAUUCCGAGGGGACCGUCACCUCGGUAAUCGCGAAUGGGACCCA	0.465
GGCCGGCAUGGUCCCAGCCUCCUCGCUGGCGCCGGCUGGGGAACAUUCCGAGGGGGCCGUCCCCUCGGUAAUGGCGAAUGGGACCCA	0.851
GGCCGGCAUGGUCCCAGCCUCCUCGCUGGCGCCGGCUGGGCAACAUUGCGAGGGGACCGUCCCCUCGGUAAUGGCGGAUGGGACCCA	0.755
GGCCGGCAUGGUCCCAGCCUCCUCGCUGGCGCCGGCUGGGCAACAUUCCGAGGGGACCGUACCCUCGGUAAUGGCGAAUGGGACCGA	0.908
GGCCGGCAUGGUCCCAGCCUCCUCGCUGGCGCCGUCUGGGCAACAUUCCGAGGGGACCGUCCCCUCGGUAAUGGCGAAUCGGACCCA	0.0567
GGCCGGCAUGGUCCCAGCCUUCUCGCUGGCGCCGGCUGGGCAACAUUCCGAGGGGACCGUCCCCUCGGUGAUGGCGAAUGGGACCCA	0.271
